Results: patent publication US20100330078A1 (Pfizer, published 2010)
Changes are numbered by the printed parent chain. In names and notes the source's numbering stands.

Key:
Murine FcγRIII = target: T1, Murine FcγRIII (murine, UniProt P08508 31-215, limits assumed); test: Biacore
T1 construct: Construct not described; also called mFcγRIII
T1 sequence (looked up): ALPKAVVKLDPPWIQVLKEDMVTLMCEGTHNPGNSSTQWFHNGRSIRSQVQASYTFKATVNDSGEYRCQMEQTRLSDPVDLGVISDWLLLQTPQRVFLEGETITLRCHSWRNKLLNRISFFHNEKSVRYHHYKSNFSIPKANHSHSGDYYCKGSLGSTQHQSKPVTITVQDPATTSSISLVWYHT
Protocol: (§1) The ability of 22B5/DLE, which contains the IgG1 DLE triple mutations (as discussed previously in Example 2), to enhance binding to the FcγRs was evaluated in a Biacore binding experiment. The FcγR binding affinities of 22B5/DLE were compared with the binding affinity of wild type (wt) IgG1. […] The binding affinity comparison of 22B5/DLE and wild type IgG1 was also evaluated against the murine Fcγ receptors. The greatest enhancement in binding was to the mFcγRIV, followed by mFcγRI, and mFcγRIII (see FIG. 5).

Human FcγRIIa/131H = target: T2, Human FcγRIIa/131H (human, UniProt P12318 36-218, limits assumed); test: Biacore
T2 construct: Polymorphic variant 131H; construct not described
T2 sequence (looked up): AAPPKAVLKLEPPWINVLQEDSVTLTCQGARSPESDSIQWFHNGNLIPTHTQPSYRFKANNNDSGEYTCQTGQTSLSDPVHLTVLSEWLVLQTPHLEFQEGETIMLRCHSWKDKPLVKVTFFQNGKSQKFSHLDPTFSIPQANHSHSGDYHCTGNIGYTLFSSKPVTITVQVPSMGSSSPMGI
Protocol: as §1

Human FcγRIIa/131R = target: T3, Human FcγRIIa/131R (human, UniProt P12318 36-218, limits assumed); test: Biacore
T3 construct: Polymorphic variant 131R; construct not described
T3 sequence (looked up): T2 sequence (looked up) with H132R
Protocol: as §1

Human FcγRIIIa/158F = target: T4, Human FcγRIIIa/158F (human, UniProt P08637 17-208, limits assumed); test: Biacore
T4 construct: also called Human FcγRIII/158F
T4 sequence (P08637 17-208 limits assumed): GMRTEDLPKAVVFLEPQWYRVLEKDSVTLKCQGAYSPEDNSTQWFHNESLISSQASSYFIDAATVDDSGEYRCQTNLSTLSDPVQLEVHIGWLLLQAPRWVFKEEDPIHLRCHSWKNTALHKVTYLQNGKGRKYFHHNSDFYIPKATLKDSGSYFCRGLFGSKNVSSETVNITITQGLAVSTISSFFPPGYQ
Protocol: as §1

Human FcγRIIIa/158V = target: T5, Human FcγRIIIa/158V (human, UniProt P08637 17-208, limits assumed); test: Biacore
T5 construct: also called Human FcγRIII/158V
T5 sequence (P08637 17-208 F176V limits assumed): as the sequence (P08637 17-208 limits assumed) above, with F160V counted along it
Protocol: as §1

Murine FcγRI = target: T6, Murine FcγRI (murine, UniProt P26151 25-297, limits assumed); test: Biacore
T6 construct: Construct not described; also called mFcγRI
T6 sequence (looked up): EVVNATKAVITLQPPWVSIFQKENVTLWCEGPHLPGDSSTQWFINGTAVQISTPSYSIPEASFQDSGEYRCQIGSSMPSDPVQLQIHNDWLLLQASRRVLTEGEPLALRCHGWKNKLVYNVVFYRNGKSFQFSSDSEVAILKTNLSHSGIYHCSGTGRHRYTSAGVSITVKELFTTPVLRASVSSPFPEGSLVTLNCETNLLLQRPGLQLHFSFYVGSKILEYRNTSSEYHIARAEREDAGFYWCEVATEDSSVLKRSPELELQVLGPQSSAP
Protocol: as §1

Murine FcγRIV = target: T7, Murine FcγRIV (murine, UniProt A0A0B4J1G0 21-203); test: Biacore
T7 construct: Construct not described; also called mFcγRIV
T7 sequence: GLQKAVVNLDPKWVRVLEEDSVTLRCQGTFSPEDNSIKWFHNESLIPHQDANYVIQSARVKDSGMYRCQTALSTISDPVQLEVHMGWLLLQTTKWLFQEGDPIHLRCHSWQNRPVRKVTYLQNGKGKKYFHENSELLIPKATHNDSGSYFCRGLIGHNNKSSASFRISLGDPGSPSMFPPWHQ
Protocol: as §1

Human FcγRI = target: T8, Human FcγRI (human, UniProt P12314 16-288, limits assumed); test: Biacore
T8 construct: Construct used in Biacore is not described
T8 sequence (P12314 16-288 limits assumed): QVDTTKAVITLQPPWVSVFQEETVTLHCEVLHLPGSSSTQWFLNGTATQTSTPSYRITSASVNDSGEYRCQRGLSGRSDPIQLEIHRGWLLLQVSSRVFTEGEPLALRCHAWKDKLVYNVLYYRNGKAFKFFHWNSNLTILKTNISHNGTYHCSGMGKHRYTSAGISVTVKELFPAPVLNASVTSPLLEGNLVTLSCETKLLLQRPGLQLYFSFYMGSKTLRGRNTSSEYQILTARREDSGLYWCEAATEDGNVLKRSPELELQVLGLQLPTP
Protocol: as §1

[1] = target: T9, human recombinant α5β1 extracellular domain (human, UniProt P08648 42-995; P05556 21-728); test: Biacore, antibody immobilised, α5β1 extracellular domain flowed, 25.0 C, 4.0 mM CaCl2
T9 construct: extracellular domain; also called α5β1 recombinant extracellular domain; extracellular domain of α5β1
T9 sequence (P08648 42-995, chain 1 of 2): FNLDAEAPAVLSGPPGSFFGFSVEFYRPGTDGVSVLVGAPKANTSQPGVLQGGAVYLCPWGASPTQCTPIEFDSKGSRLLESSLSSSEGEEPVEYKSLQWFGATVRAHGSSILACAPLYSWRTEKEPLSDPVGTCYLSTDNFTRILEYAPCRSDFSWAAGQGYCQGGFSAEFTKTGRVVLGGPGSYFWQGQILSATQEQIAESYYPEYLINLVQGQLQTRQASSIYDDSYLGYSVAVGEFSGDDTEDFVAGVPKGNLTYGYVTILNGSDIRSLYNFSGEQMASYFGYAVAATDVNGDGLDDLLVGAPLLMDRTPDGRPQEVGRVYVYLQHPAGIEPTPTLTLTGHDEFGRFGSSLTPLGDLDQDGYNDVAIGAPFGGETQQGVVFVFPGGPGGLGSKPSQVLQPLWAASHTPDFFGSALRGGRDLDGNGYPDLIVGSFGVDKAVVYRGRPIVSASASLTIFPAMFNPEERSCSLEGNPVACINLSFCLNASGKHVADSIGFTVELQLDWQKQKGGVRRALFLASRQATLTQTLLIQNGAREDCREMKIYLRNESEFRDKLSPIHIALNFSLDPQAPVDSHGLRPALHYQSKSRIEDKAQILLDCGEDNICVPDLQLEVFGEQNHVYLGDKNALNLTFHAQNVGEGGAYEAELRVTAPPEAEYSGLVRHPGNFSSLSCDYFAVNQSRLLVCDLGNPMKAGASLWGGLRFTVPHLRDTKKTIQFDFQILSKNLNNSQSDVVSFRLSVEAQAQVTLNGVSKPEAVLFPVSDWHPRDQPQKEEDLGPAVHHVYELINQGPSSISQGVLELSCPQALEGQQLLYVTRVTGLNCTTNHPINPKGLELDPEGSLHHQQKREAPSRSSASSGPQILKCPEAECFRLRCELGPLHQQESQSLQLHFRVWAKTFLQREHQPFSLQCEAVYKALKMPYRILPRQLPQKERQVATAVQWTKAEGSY
T9 sequence (P05556 21-728, chain 2 of 2): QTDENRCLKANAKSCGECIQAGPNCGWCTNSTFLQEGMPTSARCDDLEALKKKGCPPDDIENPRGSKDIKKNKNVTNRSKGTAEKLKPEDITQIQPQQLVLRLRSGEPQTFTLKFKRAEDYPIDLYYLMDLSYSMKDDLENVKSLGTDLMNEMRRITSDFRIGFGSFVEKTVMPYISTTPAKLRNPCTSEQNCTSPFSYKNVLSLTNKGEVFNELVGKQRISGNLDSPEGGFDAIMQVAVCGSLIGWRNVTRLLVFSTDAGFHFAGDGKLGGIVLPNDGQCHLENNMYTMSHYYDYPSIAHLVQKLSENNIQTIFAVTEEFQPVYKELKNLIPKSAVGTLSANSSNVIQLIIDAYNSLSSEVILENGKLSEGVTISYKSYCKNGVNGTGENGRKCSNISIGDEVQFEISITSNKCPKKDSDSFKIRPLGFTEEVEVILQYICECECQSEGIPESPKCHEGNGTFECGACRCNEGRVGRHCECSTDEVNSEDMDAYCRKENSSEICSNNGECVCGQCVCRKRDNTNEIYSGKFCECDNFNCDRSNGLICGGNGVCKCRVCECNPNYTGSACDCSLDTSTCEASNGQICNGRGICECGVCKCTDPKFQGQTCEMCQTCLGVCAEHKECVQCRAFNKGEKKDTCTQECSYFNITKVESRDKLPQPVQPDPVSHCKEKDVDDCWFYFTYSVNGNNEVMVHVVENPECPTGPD
Protocol: (§2) Binding kinetics and nominal avidity of 22B5/DLE to the extracellular domain of α5β1 was determined using Biacore analysis (Biacore AB, Uppsala, Sweden). To perform BIAcore kinetic analyses, the 22B5/DLE antibody was immobilized on a biosensor chip and various concentrations of human recombinant α5β1 extracellular domain were flowed across the surface at 25.0° C. (see FIG. 3). The binding data were fit globally to a simple one-to-one binding model with drifting baseline. 22B5/DLE binds reversibly to α5β1. […] The KD was greater when measured in the absence of divalent cations, consistent with cation-dependent activation of integrin.

[2] = target: T10, human integrin α5β1 on cells (endogenous, HUVEC; tumor or endothelial-expressed) (human, UniProt P08648 42-1049; P05556 21-798); test: cell-based or functional assay
T10 sequence (P08648 42-1049, chain 1 of 2): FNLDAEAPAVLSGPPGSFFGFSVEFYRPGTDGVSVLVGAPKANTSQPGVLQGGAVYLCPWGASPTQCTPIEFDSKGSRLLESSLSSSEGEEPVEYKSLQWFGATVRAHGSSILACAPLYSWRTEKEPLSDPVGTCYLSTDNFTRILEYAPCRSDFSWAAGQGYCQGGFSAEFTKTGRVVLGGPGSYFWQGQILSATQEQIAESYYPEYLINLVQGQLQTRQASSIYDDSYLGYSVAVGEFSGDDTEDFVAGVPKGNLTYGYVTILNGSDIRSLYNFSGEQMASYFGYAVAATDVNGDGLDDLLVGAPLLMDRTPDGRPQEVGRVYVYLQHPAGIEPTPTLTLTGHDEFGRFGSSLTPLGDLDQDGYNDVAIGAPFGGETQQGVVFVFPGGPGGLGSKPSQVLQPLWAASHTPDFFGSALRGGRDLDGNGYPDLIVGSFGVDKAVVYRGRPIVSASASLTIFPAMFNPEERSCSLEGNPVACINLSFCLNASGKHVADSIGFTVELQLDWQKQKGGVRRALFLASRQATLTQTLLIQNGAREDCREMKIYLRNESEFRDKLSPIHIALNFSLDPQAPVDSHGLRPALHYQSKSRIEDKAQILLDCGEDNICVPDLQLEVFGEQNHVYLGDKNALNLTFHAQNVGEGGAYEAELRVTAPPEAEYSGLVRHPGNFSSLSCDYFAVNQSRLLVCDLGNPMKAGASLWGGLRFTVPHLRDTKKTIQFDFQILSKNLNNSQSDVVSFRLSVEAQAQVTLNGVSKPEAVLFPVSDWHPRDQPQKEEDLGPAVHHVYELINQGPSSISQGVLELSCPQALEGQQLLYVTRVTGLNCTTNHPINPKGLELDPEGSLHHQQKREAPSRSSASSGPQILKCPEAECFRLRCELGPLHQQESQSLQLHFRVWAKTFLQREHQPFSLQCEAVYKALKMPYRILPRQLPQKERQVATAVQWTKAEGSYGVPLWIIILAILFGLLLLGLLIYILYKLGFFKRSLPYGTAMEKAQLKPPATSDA
T10 sequence (P05556 21-798, chain 2 of 2): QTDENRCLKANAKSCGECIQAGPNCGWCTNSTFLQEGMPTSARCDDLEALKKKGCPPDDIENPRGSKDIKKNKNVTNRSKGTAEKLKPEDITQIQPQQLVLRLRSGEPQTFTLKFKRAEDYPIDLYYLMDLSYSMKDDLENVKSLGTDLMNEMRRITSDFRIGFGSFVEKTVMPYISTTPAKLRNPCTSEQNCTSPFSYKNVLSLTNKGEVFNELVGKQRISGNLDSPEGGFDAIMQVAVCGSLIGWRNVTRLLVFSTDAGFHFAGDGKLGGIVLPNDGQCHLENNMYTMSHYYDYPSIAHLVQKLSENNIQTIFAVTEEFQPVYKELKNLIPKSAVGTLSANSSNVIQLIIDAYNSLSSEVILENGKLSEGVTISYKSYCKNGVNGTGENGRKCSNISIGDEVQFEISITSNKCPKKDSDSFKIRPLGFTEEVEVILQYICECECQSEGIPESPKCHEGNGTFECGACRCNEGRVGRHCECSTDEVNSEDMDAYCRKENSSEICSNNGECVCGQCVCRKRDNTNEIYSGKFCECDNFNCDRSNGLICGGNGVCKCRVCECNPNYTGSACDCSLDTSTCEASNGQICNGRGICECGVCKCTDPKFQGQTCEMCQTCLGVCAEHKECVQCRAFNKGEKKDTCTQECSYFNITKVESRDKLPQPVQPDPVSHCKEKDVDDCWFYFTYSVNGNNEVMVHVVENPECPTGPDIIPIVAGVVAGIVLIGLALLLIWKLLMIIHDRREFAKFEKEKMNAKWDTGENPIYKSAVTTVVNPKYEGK

[3] = target: T9, human recombinant α5β1 extracellular …; test: Biacore, antibody immobilised, α5β1 extracellular domain flowed, 25.0 C, 4.0 mM MgCl2
Protocol: as §2

[4] = target: T10, human integrin α5β1 on cells …; test: FACS on HUVEC (endogenous human α5β1), GeoMean against mAb concentration, fitted; experiment 030207

B1: 22B5/DLE (antibody, human IgG1, kappa)
heavy: QLQLQESGPGLVKPSETLSLTCTVSGGSISSSSYWGWIRQPPGKGLEWIGSIYYSGRNYNNPSLKSRVTISVDTSKNQFSLKLSSVTAADTAVYYCARHYYGSGSSYYYYDLDVWGQGTTVTVSSASTKGPSVFPLAPSSKSTSGGTAALGCLVKDYFPEPVTVSWNSGALTSGVHTFPAVLQSSGLYSLSSVVTVPSSSLGTQTYICNVNHKPSNTKVDKKVEPKSCDKTHTCPPCPAPELLGGPDVFLFPPKPKDTLMISRTPEVTCVVVDVSHEDPEVKFNWYVDGVEVHNAKTKPREEQYNSTYRVVSVLTVLHQDWLNGKEYKCKVSNKALPLPEEKTISKAKGQPREPQVYTLPPSREEMTKNQVSLTCLVKGFYPSDIAVEWESNGQPENNYKTTPPVLDSDGSFFLYSKLTVDKSRWQQGNVFSCSVMHEALHNHYTQKSLSLSPGK
light: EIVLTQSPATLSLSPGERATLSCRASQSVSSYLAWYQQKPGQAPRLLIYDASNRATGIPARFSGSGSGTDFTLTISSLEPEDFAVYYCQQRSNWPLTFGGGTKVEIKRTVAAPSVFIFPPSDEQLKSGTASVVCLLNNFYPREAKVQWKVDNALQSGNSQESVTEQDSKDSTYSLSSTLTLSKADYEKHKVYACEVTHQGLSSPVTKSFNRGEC
notes: Human IgG1 with Fc mutations S247D, A338L, I340E; the VH already holds the germline back-mutations I30S and N33S; also called 22B5 IgG1 DLE; 22B5 G1 DLE
Kd (Murine FcγRIII): 1700 nM | Kd (Human FcγRIIa/131H): 1000 nM | Kd (Human FcγRIIa/131R): 650 nM | Kd (Human FcγRIIIa/158F): 27 nM | Kd (Human FcγRIIIa/158V): 9.4 nM | Kd (Murine FcγRI): 96 nM | Kd (Murine FcγRIV): 9.1 nM | Kd (Human FcγRI): 5.8 nM | Kd [1]: 2.7 nM | koff [1]: 0.0012 s⁻¹ | kon [1]: 450000 M⁻¹ s⁻¹ | ADCC EC50 (up to 80% target cell lysis), human PBMCs [2]: 0.04 nM | Kd [3]: 4.1 nM | koff [3]: 0.0014 s⁻¹ | kon [3]: 340000 M⁻¹ s⁻¹ | Kd [4]: 2.42 nM
